Assay results reported in publication PMC5490261, “The structural and functional characterization of human RecQ4 reveals insights into its helicase mechanism”.

Columns and labels:
Conditions in all cases: protein: recombinant; tags: Trx-His6 removed by 3C protease; label: 5' Cy3
[1] = biological target: T1, RecQ4 427-1208 R894A/R895A (Homo sapiens, UniProt O94761 427-1208, R894A;R895A); assay: fluorescence polarization; WT-like, low nM apparent Kd; 20 mM HEPES pH 8.0, 10 mM NaCl, 5% glycerol, 1 mM MgCl2, 0.5 mM TCEP, 0.5 nM Cy3-ssDNA; temperature not stated
T1 sequence: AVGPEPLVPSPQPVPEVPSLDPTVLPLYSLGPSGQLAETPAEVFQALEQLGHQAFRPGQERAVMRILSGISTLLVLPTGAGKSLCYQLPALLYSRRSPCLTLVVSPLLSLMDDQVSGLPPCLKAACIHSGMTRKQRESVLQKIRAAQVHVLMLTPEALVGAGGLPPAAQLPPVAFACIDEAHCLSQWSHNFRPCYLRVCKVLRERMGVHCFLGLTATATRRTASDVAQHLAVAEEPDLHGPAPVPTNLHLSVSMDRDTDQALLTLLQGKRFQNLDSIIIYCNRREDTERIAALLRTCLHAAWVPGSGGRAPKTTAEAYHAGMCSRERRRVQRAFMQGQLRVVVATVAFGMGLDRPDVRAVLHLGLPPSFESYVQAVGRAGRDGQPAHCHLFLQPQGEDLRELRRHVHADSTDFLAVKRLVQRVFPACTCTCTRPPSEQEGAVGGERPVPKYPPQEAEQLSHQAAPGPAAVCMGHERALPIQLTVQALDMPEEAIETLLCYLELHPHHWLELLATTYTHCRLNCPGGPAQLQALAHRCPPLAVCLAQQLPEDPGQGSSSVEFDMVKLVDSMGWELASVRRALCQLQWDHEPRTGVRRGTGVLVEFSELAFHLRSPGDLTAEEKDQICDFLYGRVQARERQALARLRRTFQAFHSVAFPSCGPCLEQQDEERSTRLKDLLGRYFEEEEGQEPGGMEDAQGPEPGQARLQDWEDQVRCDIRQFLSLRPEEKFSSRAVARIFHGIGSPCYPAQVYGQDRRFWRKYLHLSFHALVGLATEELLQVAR

[2] = biological target: T2, RecQ4 427-1208 K843A/R844A/R848A (Homo sapiens, UniProt O94761 427-1208, K843A;R844A;R848A); assay: as above
T2 sequence: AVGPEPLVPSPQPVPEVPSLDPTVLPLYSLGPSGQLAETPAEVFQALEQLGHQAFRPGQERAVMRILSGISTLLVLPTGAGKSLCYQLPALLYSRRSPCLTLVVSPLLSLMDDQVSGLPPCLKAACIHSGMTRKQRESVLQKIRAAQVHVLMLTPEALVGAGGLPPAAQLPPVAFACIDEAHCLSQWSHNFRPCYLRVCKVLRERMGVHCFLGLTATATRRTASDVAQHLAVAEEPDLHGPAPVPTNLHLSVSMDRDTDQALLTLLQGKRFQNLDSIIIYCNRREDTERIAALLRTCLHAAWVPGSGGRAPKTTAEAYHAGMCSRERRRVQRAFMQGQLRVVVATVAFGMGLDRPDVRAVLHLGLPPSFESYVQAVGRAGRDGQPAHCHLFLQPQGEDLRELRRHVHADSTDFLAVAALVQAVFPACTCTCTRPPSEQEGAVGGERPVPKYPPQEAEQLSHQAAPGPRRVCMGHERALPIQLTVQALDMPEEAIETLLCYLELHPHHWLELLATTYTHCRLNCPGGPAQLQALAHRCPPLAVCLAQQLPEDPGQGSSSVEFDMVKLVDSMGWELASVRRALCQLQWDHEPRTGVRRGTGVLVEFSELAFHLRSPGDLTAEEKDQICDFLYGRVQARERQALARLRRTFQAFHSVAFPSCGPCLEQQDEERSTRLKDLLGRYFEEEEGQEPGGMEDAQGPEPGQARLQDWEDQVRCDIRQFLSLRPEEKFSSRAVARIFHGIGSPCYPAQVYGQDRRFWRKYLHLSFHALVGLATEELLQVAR

RecQ4 427-1208 W613L = biological target: T3, RecQ4 427-1208 W613L (Homo sapiens, UniProt O94761 427-1208, W613L); assay: fluorescence polarization; WT-like affinity; figure values not assignable from text layer; 20 mM HEPES pH 8.0, 10 mM NaCl, 5% glycerol, 1 mM MgCl2, 0.5 mM TCEP, 0.5 nM Cy3-ssDNA; temperature not stated
T3 sequence: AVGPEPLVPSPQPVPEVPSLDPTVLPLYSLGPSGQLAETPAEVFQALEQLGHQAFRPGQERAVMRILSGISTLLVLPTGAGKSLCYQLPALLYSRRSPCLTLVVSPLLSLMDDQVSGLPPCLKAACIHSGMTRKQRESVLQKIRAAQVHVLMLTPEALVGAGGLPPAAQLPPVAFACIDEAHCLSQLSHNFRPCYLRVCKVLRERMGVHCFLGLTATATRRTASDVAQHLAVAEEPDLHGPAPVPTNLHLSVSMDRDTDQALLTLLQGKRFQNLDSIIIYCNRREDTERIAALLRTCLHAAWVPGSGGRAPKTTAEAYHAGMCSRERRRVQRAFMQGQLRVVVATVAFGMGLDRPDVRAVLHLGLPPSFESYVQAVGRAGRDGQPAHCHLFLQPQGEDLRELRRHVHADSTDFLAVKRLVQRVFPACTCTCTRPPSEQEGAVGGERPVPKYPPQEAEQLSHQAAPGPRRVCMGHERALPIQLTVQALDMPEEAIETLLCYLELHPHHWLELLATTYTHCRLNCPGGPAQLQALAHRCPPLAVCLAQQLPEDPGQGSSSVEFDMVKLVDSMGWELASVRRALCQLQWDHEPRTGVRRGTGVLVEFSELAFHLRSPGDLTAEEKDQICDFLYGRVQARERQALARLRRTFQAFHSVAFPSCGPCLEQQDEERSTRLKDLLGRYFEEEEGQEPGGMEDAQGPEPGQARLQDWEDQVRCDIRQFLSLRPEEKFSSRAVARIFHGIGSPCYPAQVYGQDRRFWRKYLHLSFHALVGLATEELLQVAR

Measured: binding result

CCATTCCACCCTCTATTTTTTTTTTTTTTT (ssDNA) [T3-Cy3]
binds: all assays above
